The target of assay [1] is T1, his-tagged human BCMA protein (ACROBiosystems, catalog # BCA-H522y-100 ug) (human, UniProt Q02223 1-54).
T1 construct: limits of the bought construct are not otherwise stated; also called recombinant his-tagged human BCMA; not shown: his tag of the bought protein
T1 sequence: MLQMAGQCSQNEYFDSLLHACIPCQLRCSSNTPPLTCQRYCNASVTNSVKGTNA
As to the kind of experiment: SPR (Biacore T200, 25 C), antibody captured on anti-human Fc, his-tagged human BCMA as analyte, 1:1 binding model. As for the experimental part:
(§1) Binding kinetics of anti-BCMA antibodies with his-tagged human BCMA protein (ACROBiosystems, catalog # BCA-H522y-100 ug, UniProt Q02223-1, SEQ ID NO:92) was measured using surface plasmon resonance (SPR). Kinetic interactions between the antibodies and his-tagged BCMA proteins were measured at 25° C. using Biacore T200 surface plasmon resonance (GE Healthcare). Anti-human fragment crystallizable region (Fc region) antibody was immobilized on a CM5 sensor chip to approximately 8000 resonance units (RU) using standard N-hydroxysuccinimide/N-Ethyl-N′-(3-dimethylaminopropyl) carbodiimide hydrochloride (NHS/EDC) coupling methodology. The anti-BCMA antibody (2 μg/mL) was captured for 60 seconds at a flow rate of 10 μL/minute. The his-tagged BCMA protein was run at six different dilutions of 3.12, 6.25, 12.5, 25, 50, 100 and 200 nM, in a running buffer of 0.01 M HEPES pH 7.4, 0.15 M NaCl, 3 mM EDTA, 0.05% v/v Surfactant P20 (HBS-EP+). The 25 nM BCMA protein run was measured two times. All measurements were conducted in HBS-EP+ buffer with a flow rate of 30 μL/minute. A 1:1 (Langmuir) binding model was used to fit the data. The SPR sensorgrams of anti-BCMA antibodies BCA7, GSK J6M0, BC4C9 and BC5C4 are shown in FIGS. 1, 2, 3 and 4, respectively, and their corresponding binding kinetics are listed in Table 3.
Background: SPR reads the build-up and loss of mass on a sensor chip optically.

The target of assay [2] is T2, Wild type human BCMA protein-mouse Fc (human).
T2 construct: also called wild type human BCMA-mouse Fc; wild type BCMA protein
T2 chain: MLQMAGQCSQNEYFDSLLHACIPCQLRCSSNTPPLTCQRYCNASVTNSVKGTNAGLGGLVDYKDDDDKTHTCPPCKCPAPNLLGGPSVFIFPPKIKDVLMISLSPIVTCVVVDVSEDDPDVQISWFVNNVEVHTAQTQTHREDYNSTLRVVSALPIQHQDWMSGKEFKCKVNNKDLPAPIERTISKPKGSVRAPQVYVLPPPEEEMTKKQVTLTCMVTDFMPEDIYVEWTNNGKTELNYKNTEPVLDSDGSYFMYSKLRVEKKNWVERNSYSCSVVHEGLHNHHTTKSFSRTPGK
As to the kind of experiment: bio-layer interferometry, antibody (100 nM) loaded on AR2G sensor, BCMA-mouse Fc in solution. As for the experimental part: (§2) The results of the protein-protein binding assays described in Example 8 were used to design an epitope mapping assay using bio-layer interferometry. Various anti-BCMA antibodies (2C5, 2E1, 4C9, 6G8, Bluebird C11D5, GSK J6M0, or isotype control) (100 nM) were loaded onto AR2G sensors and reacted with buffer or one of three types of human BCMA proteins including: including: wild type human BCMA-mouse Fc (SEQ ID NO:5), mutant-1 human BCMA-mouse Fc (double mutation 17G-18G; SEQ ID NO:6), or mutant-2 human BCMA-mouse Fc (mutation del32-35G; SEQ ID NO:7).
Background: In BLI a coated tip is dipped into the sample, and binding shifts an interference pattern.

In assay [3] the target is T3, Mutant-2 human BCMA protein-mouse Fc (human).
T3 construct: also called mutant-2 human BCMA-mouse Fc (del32-35G); mutant-2 BCMA protein
T3 chain: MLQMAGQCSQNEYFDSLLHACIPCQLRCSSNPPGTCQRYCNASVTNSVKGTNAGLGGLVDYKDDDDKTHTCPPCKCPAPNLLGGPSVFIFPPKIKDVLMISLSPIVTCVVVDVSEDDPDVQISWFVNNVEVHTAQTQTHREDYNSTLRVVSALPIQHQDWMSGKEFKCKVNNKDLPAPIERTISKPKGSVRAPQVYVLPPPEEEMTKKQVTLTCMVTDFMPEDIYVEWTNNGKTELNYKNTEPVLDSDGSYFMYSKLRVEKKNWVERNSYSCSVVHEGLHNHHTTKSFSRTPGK
The description is as above. As to the method: as §2

The target in assay [4] is T1, his-tagged human BCMA protein …. As to the kind of experiment: SPR (Biacore T200), antibody captured on anti-human Fc, his-tagged human BCMA as analyte; fit with ka1/kd1/ka2/kd2 (model not named). As for the experimental part:
as §1, with “A 1:1 (Langmuir) binding model was used to fit the data.” left out
Binding kinetics of optimized anti-BCMA antibodies BCA7-2C5, BCA7-2D11, BCA7-2G2, BCA7-2E1, BCA7-2D8 and BCA7-2E8, with his-tagged human BCMA protein (ACROBiosystems, catalog # BCA-H522y-100 ug), were analyzed in the manner as described above.

The target of assay [5] is T4, his-tagged mouse BCMA protein (ACROBiosystems, catalog # BCA-M52H3) (mouse, UniProt O88472 1-49).
T4 construct: Bought protein; not shown: his tag
T4 chain (looked up): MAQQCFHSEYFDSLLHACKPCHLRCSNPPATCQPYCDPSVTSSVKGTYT
As to the kind of experiment: SPR (Biacore T200), antibody captured on anti-human Fc chip, his-tagged mouse BCMA as analyte. As to the method: as §1, with “The SPR sensorgrams of anti-BCMA antibodies BCA7, GSK J6M0, BC4C9 and BC5C4 are shown in FIGS. 1, 2, 3 and 4, respectively, and their corresponding binding kinetics are listed in Table 3.” left out
(§3) Cross reactivity of two of the anti-BCMA antibodies, BCA7-2C5 and BCA7-2E1, with his-tagged human, cynomolgus or mouse BCMA protein were analyzed by SPR in the manner as described above. […]

Assay [6] has as its target T5, his-tagged cynomolgus BCMA protein (ACROBiosystems, catalog # BCA-052H7) (cynomolgus, UniProt A0A2K5UD97 1-53).
T5 construct: Bought protein; also called cyno BCMA; not shown: his tag
Description: SPR (Biacore T200), antibody captured on anti-human Fc chip, his-tagged cynomolgus BCMA as analyte. As for the experimental part:
as §1, with “The SPR sensorgrams of anti-BCMA antibodies BCA7, GSK J6M0, BC4C9 and BC5C4 are shown in FIGS. 1, 2, 3 and 4, respectively, and their corresponding binding kinetics are listed in Table 3.” left out
as §3

The target in assay [7] is T1, his-tagged human BCMA protein …. Description: SPR (Biacore T200), antibody captured on anti-human Fc chip, his-tagged human BCMA as analyte. As for the experimental part: as §1, with “The SPR sensorgrams of anti-BCMA antibodies BCA7, GSK J6M0, BC4C9 and BC5C4 are shown in FIGS. 1, 2, 3 and 4, respectively, and their corresponding binding kinetics are listed in Table 3.” left out
as §3

T5 sequence (A0A2K5UD97 entry or part of it): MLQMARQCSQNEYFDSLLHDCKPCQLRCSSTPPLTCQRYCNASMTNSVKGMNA

B1: BC5C4 antibody (antibody, V domains shown)
VH: EVQLVESGGGLVQPGRSLRLSCAASGFTFDDYAMHWVRQAPGKGLEWVSGISWNSGSIGYADSVKGRFTISRDNAKNSLYLQMNSLRAEDTAVYYCATIDNVAFHSWGQGTLVTVSS
VL: QSVLTQPPSASGSPGQSVTISCTGTSSDIGGYNYVSWYQQHPGKAPKLIIYEVSNRPSGVSDRFSGSKSGNTASLTISGLQAEDEADYYCSSYTDNGALVVFGGGTKLTVL
notes: also called CD5C4
Broadly, the Kd is a measure of binding affinity in units of concentration. A word on the koff: it is the first-order rate constant of dissociation. A high value points to a short-lived complex. By kon is commonly meant the rate constant with which the complex forms. In assay [1], B1 registered a Kd of 9.27 nM, a koff of 0.033 s⁻¹ and an association rate constant (kon) of 3.56e+06 M⁻¹ s⁻¹.

B2: BC4C9 antibody (antibody, V domains shown)
VH: EVQLVQSGAEVKKPGASVKVSCKAFGYTFTSYDINWVRQATGQGLEWMGWMNPNSGNTGYAQKFQGRVTMTRNTSISTAYMELSSLRSEDTAVYYCASGLGEWGQGTLVTVSS
VL: QSVLTQPASVSGSPGQSVTISCTGTSSDVGGYNYVSWYQQHPGKAPKLMIYDVSKRPSGVSNRFSGSKSGNTASLTISGLQAEDEADYYCISYSSSSTFYVFGTGTKVTVL
For the molecule B2, the binding result in assay [2] is reported as “binds”. For the same molecule, the binding result in assay [3] is “binds”. Besides, in assay [1], the Kd turned out to be 27.3 nM, the koff was found to be 0.000567 s⁻¹ and the kon turned out to be 20800 M⁻¹ s⁻¹.

B3: BCA7-2E1 antibody (antibody, V domains shown)
VH: EVQLVESGGGLVKPGGSLRLSCAASGFTSSTAWMSWVRQAPGKGLEWVGRIKSKSDGGTTDYAAPVKGRFTISRDDSKNTLFLQMNSLKTEDTAVYYCAKGGGTYGYWGQGTTVTVSS
VL: QSALTQPASVSGSPGQSVTISCTGTSSDGGGHTYVSWYQQHPGKAPKLMIYDVSNRPSWVSNRFSGSKSGNTASLTISGLQAEDEADYYCGSYTSSGSYVFGTGTKLTVL
notes: also called BCA-2E1
On to B3, for which the binding result in assay [2] is listed as “binds”. Further, in assay [3], the binding result is given as “binds”. Also, in assay [4], the Kd came out at 20.4 nM, the ka1 worked out at 2.51e+06 M⁻¹ s⁻¹, the ka2 is 0.0018 s⁻¹ and the kd1 is 0.151 s⁻¹. This molecule registered a kd2 in assay [4] of 0.000929 s⁻¹. Also, the Kd in assay [5] is 1000 nM. In assay [6], this molecule had a Kd of 174 nM. In assay [7], this molecule gave a dissociation constant (Kd) of 20.4 nM.

B4: BCA7-2D8 antibody (antibody, V domains shown)
VH: EVQLVESGGGLVKPGGSLRLSCAASGFTSSTAWMSWVRQAPGKGLEWVGRIKSKSDGGTTDYAAPVKGRFTISRDDSKNTLFLQMNSLKTEDTAVYYCAKGGGTYGYWGQGTTVTVSS
VL: QSVLTQPASVSGSPGQSVTISCTGTSSSIGDSYYVSWYQQHPGKAPKLMIYDVSNRPSGVSNRFSGSKSGNTASLTISGLQAEDEADYYCGSYTSSGSYVFGTGTTLTVL
Turning to B4, in assay [4], the affinity, expressed as Kd, was 83.8 nM; the ka1 was 2.43e+06 M⁻¹ s⁻¹; the ka2 was 0.0113 s⁻¹; the kd1 was determined as 1.09 s⁻¹. Besides, the kd2 in assay [4] is 0.0026 s⁻¹.

B5: BCA7-2E8 antibody (antibody, V domains shown)
VH: EVQLVESGGGLVKPGGSLRLSCAASGFTSSTAWMSWVRQAPGKGLEWVGRIKSKSDGGTTDYAAPVKGRFTISRDDSKNTLFLQMNSLKTEDTAVYYCAKGGGTYGYWGQGTTVTVSS
VL: QSVLTQPASVSGSPGQSVTISCTGTSSDVGGYNYVSWYQQHPGKAPKLMIYDVSNRPSGVSNRFSGSKSGNTASLTISGLQAEDEADYYCGSLRSNGDYVFGTGTTLTVL
In assay [4], B5 had a Kd of 155 nM, a ka1 of 48700 M⁻¹ s⁻¹, a ka2 of 0.0119 s⁻¹ and a kd1 of 0.0202 s⁻¹. Also, the kd2 in assay [4] worked out at 0.00707 s⁻¹.

B6: BCA7-2D11 antibody (antibody, V domains shown)
VH: EVQLVESGGGLVKPGGSLRLSCAASGFTSSTAWMSWVRQAPGKGLEWVGRIKSKSDGGTTDYAAPVKGRFTISRDDSKNTLFLQMNSLKTEDTAVYYCAKGGGTYGYWGQGTTVTVSS
VL: SYELTQPASVSGSPGQSVTISCTGTSSVVGGHDYVSWYQQHPGKAPKLMIYDVSNRPSGVSNRFSGSKSGNTASLTISGLQAEDEADYYCGSYTSSGSYVFGTGTKVTVL
In assay [4], B6 returned a Kd of 21.9 nM, a ka1 of 1.87e+06 M⁻¹ s⁻¹, a ka2 of 0.00381 s⁻¹ and a kd1 of 0.261 s⁻¹. The kd2 in assay [4] turned out to be 0.00071 s⁻¹.

B7: BCA7-2G2 antibody (antibody, V domains shown)
VH: EVQLVESGGGLVKPGGSLRLSCAASGFTSSTAWMSWVRQAPGKGLEWVGRIKSKSDGGTTDYAAPVKGRFTISRDDSKNTLFLQMNSLKTEDTAVYYCAKGGGTYGYWGQGTTVTVSS
VL: QSVLTQPASVSGSPGQSVTISCTGTSSSVGGRQYVSWYQQHPGKAPKLMIYDVSNRPSGVSNRFSGSKSGNTASLTISGLQAEDEADYYCGSYTSSGSYVFGTGTKLTVL
Consider B7, for which, in assay [4], the Kd worked out at 53.7 nM, the ka1 was 32100 M⁻¹ s⁻¹, the ka2 is 0.00143 s⁻¹ and the kd1 was determined as 0.00376 s⁻¹. This molecule yielded a kd2 in assay [4] of 0.00121 s⁻¹.

The record behind these values is patent publication US20210388097A1 (SORRENTO THERAPEUTICS, published 2021).
